Test results published in publication PMC13324253 (NPJ Vaccines, 2026).
Where no end group is shown, it is not given here.

Columns and labels:
Experiment in all cases: ELISA; biotinylated P21 or P29 (2 ug/ml) on streptavidin-coated plates, PfCSP (2 ug/ml) coated on high-binding plates; 100 ul RATPIg supernatant, 1 h at room temperature; peroxidase goat anti-mouse IgG, OD450
Settings in all cases: one partner purified
[1] = target: T1, major repeat peptide P29 (NANPNANPNANPNAN) (Plasmodium falciparum, also: biotin, end not given here)
T1 construct: major repeat 15-mer peptide of PfCSP; Biotinylated, held on streptavidin-coated plates in the ELISA; Probably a synthetic peptide (surmise)
T1 chain: NANPNANPNANPNAN

[2] = target: T2, Plasmodium falciparum circumsporozoite protein (PfCSP), full-length (Plasmodium falciparum, 3D7 (strain not …, UniProt Q7K740))
T2 construct: Plasmodium falciparum circumsporozoite protein, called full-length; recombinant 'full-length' PfCSP may lack the signal peptide and the GPI anchor signal (surmise); also called flCSP
T2 sequence (Q7K740 19-374): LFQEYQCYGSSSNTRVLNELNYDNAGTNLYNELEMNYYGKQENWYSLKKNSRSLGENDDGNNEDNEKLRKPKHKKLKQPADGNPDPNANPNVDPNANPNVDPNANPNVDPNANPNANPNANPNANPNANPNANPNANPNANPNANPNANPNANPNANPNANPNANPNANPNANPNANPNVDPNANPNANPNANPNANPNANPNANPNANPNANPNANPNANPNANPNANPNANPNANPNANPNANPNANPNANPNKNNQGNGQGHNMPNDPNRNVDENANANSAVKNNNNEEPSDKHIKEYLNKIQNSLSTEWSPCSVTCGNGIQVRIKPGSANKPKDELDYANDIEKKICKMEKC

[3] = target: T3, junctional peptide P21 (NPDPNANPNVDPNAN) (Plasmodium falciparum, also: biotin, end not given here)
T3 construct: junctional 15-mer peptide of PfCSP; Biotinylated, held on streptavidin-coated plates in the ELISA; Probably a synthetic peptide (surmise); also called peptide 21
T3 chain: NPDPNANPNVDPNAN

Row | Binder | binding result [1] | binding result [2] | binding result [3]
1 | one strong P29-binding antibody of R21-immunized mouse 5116 (antibody, V domains shown, Expressed IgG from a single sorted B cell; source: Expi293, transfected with RATP-Ig cassettes, in culture supernatant) VH: QVQLQQSGAELARPGASVKLSCKASGYTFTSYAISWVKQRTGQGLEWIGEIYPRSGNIYYNEKFKGKATLTADKSSSTAYMELRSLTSEDSAVYFCARRGDVYFGGYWGQGTTLTVSS VL: DIVMTQSHKFMSTSVGDRVIITCKASQDVGTAVVWYQQKPGQSPKLLIYWASTRHTGVPDRFTGSGSGTDFTLTISNVQSEDLADYFCQQYNSYPLTFGAGTKLELK | binds | – | –
2 | one strong PfCSP-binding antibody of R21-immunized mouse 5116 (antibody, V domains shown, Expressed IgG from a single sorted B cell; source: Expi293, transfected with RATP-Ig cassettes, in culture supernatant) VH: QIQLLQSGPELVKPGASVRISCKASGYTLTDHYINWVKQRPGQGLEWIGWIYPGSAEIKFNEKFKGKASLTVDTSSSTAYMQLSSLTSEDSAVYFCARSGYGGLDYWGQGSTLTVSS VL: DLGMTQSHKFMSTSVGDRVTITCKASQDVGTAVAWYQQKPGQSPKLLIYWASTRHTGVPDRFTGSGSGTDFTLTITNVQSEDLADYFCQQFTIYPWTFGGGTKLEIK | – | binds | –
3 | P21/P29 double binder of mouse 5147 (PADRE-LuS-3T-immunized mouse) (antibody, V domains shown, Expressed IgG from a single sorted B cell; source: Expi293, transfected with RATP-Ig cassettes, in culture supernatant) VH: DVQLQESGPGLVKPSQSLSLTCSVTGYSITSGYYWNWIRQFPGNKLEWMGYISYDGSNNYNPSLKNRISITRDTSKNQFFLKLNSVTTEDTATYYCARDDYDGFDYWGQGTTLTVSS VL: DIQMTQSPSSLSASLGGKVTITCKASQDINKYIAWYQHKPGKGPRLLIHYTSTLQPGIPSRFSGSGSGRDYSFSISNLEPEDIATYYCLQYDNLWTFGGGTKLEIK | binds | – | binds
